Reference: the supplement of paper PMC9732359
± gives the uncertainty stated by the source.

Experiment: protein stability index of a GFP-peptide fusion (yeast GPS) (PSI 1-4); higher = more stable; sorted into four equal gates, so the index is relative within each strain
Summary of the method: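 Tiled yeast protein peptides of 17 residues were each joined downstream of GFP, on plasmids that also express Cherry. The pooled library was maintained in yeast, and mid-log cultures in leucine-free medium were sorted into four equal gates on the GFP/Cherry ratio. Plasmids from every gate were amplified by PCR and sequenced on Illumina, with barcodes linking reads to strains. The protein stability index of a peptide is its gate-number-weighted read frequency summed over the gates.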

Row | Sequence | protein stability index (doa10∆) | protein stability index (pdr5∆) | protein stability index (san1∆) | protein stability index (ubr1∆)
1 | RNHKHALHGTAKALAAA [RPL29] | 2.502 ± 0.019 | 2.685 ± 0.017 | 2.523 ± 0.018 | 2.647 ± 0.014
2 | SLAATYSMISLQNCCII [ARP9] | 1.47 ± 0.057 | 1.33 ± 0.056 | 1.26 ± 0.099 | 1.26 ± 0.041
3 | QANSNLTLLERKWVIFI [NUT1] | 1.85 ± 0.055 | 1.92 ± 0.044 | 1.67 ± 0.094 | 2.19 ± 0.061
4 | ELLKLLNDEYNYPQLTE [YCS4] | 3.09 ± 0.096 | 3.11 ± 0.098 | 3.03 ± 0.059 | 3.25 ± 0.06
5 | AAVETLYQDMAARHRAR [RPL20A] | 2.96 ± 0.065 | 3.23 ± 0.059 | 2.91 ± 0.051 | 2.91 ± 0.064
6 | NLTDEGYQWGEENKDIM [PRP8] | 2.81 ± 0.21 | – | – | 3.2 ± 0.23
7 | STKLSRPFDSFGKLLQA [ITC1] | 2.42 ± 0.054 | 2.67 ± 0.066 | 2.35 ± 0.057 | 2.03 ± 0.063
8 | FTKPPANETDKRPTPPS [YOR098C/NUP1] | 3.03 ± 0.043 | 3.05 ± 0.048 | 3.14 ± 0.039 | 3.15 ± 0.037
9 | KENYPWELYTDFNEIVQ [POP3] | 2.42 ± 0.25 | – | 2.4 ± 0.16 | –
10 | PYAVLSQFYELRDREDW [YJR042W/NUP85] | 2.16 ± 0.16 | – | 2.31 ± 0.21 | 2.71 ± 0.18
11 | LQGEVENIAQMKPKAEK [SMC4] | 3.02 ± 0.15 | 3.4 ± 0.12 | 3.19 ± 0.075 | 3.11 ± 0.075
12 | KSSIEKDPSPEILVLYN [SIN4] | 2.91 ± 0.05 | 2.9 ± 0.055 | 2.91 ± 0.045 | 2.82 ± 0.043
13 | ETENSESIASSNTYKEE [MCD1] | – | 2.55 ± 0.29 | – | 2.89 ± 0.074
14 | AVATPKAEVTQLSNGIV [COR1] | 2.77 ± 0.074 | 3.11 ± 0.066 | 3.12 ± 0.053 | 2.88 ± 0.045
15 | TSAGIMDHEEARRKHVS [RPS22A] | 2.87 ± 0.3 | 2.73 ± 0.23 | 2.87 ± 0.24 | 2.62 ± 0.15
16 | MAREHAPSIIFMDEIDS [RPT6] | 2.14 ± 0.073 | 2.11 ± 0.077 | 2.54 ± 0.099 | 2.42 ± 0.059
17 | SKLSQEFLYPHLNFPNV [SNF12] | 2.88 ± 0.08 | 2.96 ± 0.088 | 2.82 ± 0.069 | 3.02 ± 0.065
18 | ATAFNKTRGPFHFRAPS [RPL16A] | 2.67 ± 0.12 | 3.07 ± 0.1 | 2.56 ± 0.094 | 2.71 ± 0.072
19 | MQKHGYIGEFEYIDDHR [RPS22A] | 3.16 ± 0.083 | 3.19 ± 0.084 | 2.93 ± 0.07 | 3.24 ± 0.093
20 | KINRPPVSVSRIARALK [RPL18A] | – | 2.06 ± 0.1 | 1.97 ± 0.13 | 2.66 ± 0.18
21 | LSHYAKIRPWRTFRLNE [RPO31] | 2.86 ± 0.058 | 2.4 ± 0.055 | 3.06 ± 0.073 | 2.5 ± 0.051
22 | KKALKVRTSATFRLPKT [RPL25] | 2.87 ± 0.13 | – | – | 3.18 ± 0.13
23 | PDVKSLVQLSTMETKTL [SIR4] | 2.92 ± 0.071 | 2.83 ± 0.073 | 2.81 ± 0.052 | 2.98 ± 0.063
24 | INKNSKIALREYINNCK [POP4] | 2.04 ± 0.23 | 2.17 ± 0.098 | 2.42 ± 0.11 | 1.73 ± 0.14
25 | HKDIPEEDFYTVVGNAS [DSN1] | 2.94 ± 0.091 | 2.91 ± 0.18 | 2.73 ± 0.1 | 3.19 ± 0.062
26 | GIVLEKLGIESKQPNSA [RPS23A] | 2.05 ± 0.071 | 2.11 ± 0.072 | 1.92 ± 0.11 | 2.38 ± 0.1
27 | VANYSAMANAPGNNIPY [GAL11] | 2.88 ± 0.16 | 3.25 ± 0.18 | 2.7 ± 0.17 | 2.76 ± 0.16

Row | Sequence | protein stability index (doa10∆) | protein stability index (pdr5∆) | protein stability index (san1∆) | protein stability index (ubr1∆)
28 | YLAHEDNKEKDFELEIS [PRE10] | 2.84 ± 0.17 | 2.86 ± 0.12 | 3.23 ± 0.1 | 3.33 ± 0.072
29 | DLSYNFNVHEVPRAALE [YMR129W/POM152] | 2.91 ± 0.057 | 3.04 ± 0.069 | 2.85 ± 0.054 | 2.92 ± 0.049
30 | YISNLLYGVTICYNKKT [REC8] | 1.22 ± 0.036 | 1.27 ± 0.048 | 1.3 ± 0.077 | 1.21 ± 0.03
31 | NIKPVEQHHINNLKNSG [GAL11] | 2.69 ± 0.062 | 2.59 ± 0.049 | 2.36 ± 0.069 | 2.47 ± 0.041
32 | SPSPILLTSAGCKNGSF [NUT1] | 2.01 ± 0.1 | 2.06 ± 0.052 | 1.61 ± 0.24 | 2.41 ± 0.073
33 | MRILPRETDPLVYNMTS [RPT4] | 3.07 ± 0.078 | 2.85 ± 0.065 | 3.18 ± 0.06 | 2.73 ± 0.057
34 | NDEGVWDLVDERTKQRT [PRP8] | 3.19 ± 0.12 | 3.37 ± 0.13 | 3.35 ± 0.13 | 3.26 ± 0.12
35 | NTLILRGPRNSREAVRH [RPL18A] | 2.53 ± 0.25 | 2.89 ± 0.18 | – | –
36 | VLSIPPANHLQSDFCLS [YGL100W/SEH1] | 2.94 ± 0.11 | 2.44 ± 0.1 | 2.52 ± 0.11 | 2.59 ± 0.044
37 | DVVYALKRQGRTLYGFG [HHF1] | 2.77 ± 0.083 | 2.8 ± 0.11 | 2.34 ± 0.14 | 2.38 ± 0.083
38 | AAAVSGNNASDEPSRKK [SSN3] | 2.68 ± 0.13 | 3.05 ± 0.11 | 2.78 ± 0.14 | 3.05 ± 0.11
39 | STTFADCPVVPADPDIL [RPC40] | 2.8 ± 0.071 | 2.87 ± 0.084 | 2.41 ± 0.11 | 2.43 ± 0.094
40 | GGQHHHRINMDKYHPGY [RPL28] | 3.23 ± 0.1 | 3.36 ± 0.056 | 3.14 ± 0.1 | 2.99 ± 0.055
41 | FKPSQEPEFHALSQSSL [RRI1] | 2.61 ± 0.05 | 2.83 ± 0.043 | 2.8 ± 0.042 | 2.42 ± 0.04
42 | RDDALVVETITSLLNKV [RRP42] | 2.88 ± 0.071 | 2.83 ± 0.048 | 3.1 ± 0.054 | 3.06 ± 0.045
43 | DDIFIRYLTLLSNEFTA [ECM29] | 2.14 ± 0.056 | 1.91 ± 0.051 | 2.44 ± 0.074 | 1.76 ± 0.029
44 | YNPKMIDDRDYVGNKRL [RET1] | – | – | – | 3.49 ± 0.26
45 | KPSKPFNVDDVLKFTFT [MED8] | 3.1 ± 0.061 | 2.83 ± 0.051 | 3.03 ± 0.034 | 2.74 ± 0.039
46 | RADTDLAMNDDDFLSKK [SNF2] | 3.35 ± 0.094 | 3.59 ± 0.079 | 3.22 ± 0.076 | 3.42 ± 0.067
47 | SKISQMAQNKTHIPQTN [YLR018C/POM34] | 1.83 ± 0.24 | 2.21 ± 0.12 | 2.07 ± 0.1 | 1.95 ± 0.07
48 | SDSLDIAQGIDLVRDID [SRP72] | 3.29 ± 0.11 | 3.38 ± 0.088 | 3.09 ± 0.077 | 3.26 ± 0.1
49 | MTLEDNNVTSNPSEFTP [SSN2] | 2.75 ± 0.069 | 3.03 ± 0.067 | 2.92 ± 0.068 | 3.16 ± 0.064
50 | KEIDPSQTTQLAGMDVE [FAS2] | 3.14 ± 0.086 | 3.28 ± 0.11 | 3.15 ± 0.077 | 3.6 ± 0.069
51 | RTLWPEFIPPDPTKVTE [SSN8] | 2.49 ± 0.042 | 2.73 ± 0.038 | 2.78 ± 0.04 | 2.671 ± 0.026
52 | LPRELPKLLDALNKISK [SNU114] | 2.65 ± 0.072 | 2.74 ± 0.083 | 2.84 ± 0.077 | 2.88 ± 0.062
53 | RLIVDPNIADYITAKNN [PRP8] | 2.15 ± 0.076 | 2.22 ± 0.066 | 2.36 ± 0.26 | 2.08 ± 0.052
54 | PVSCIIQNDEEYDTPAL [PRP8] | 1.79 ± 0.1 | 2.73 ± 0.077 | 1.92 ± 0.093 | 1.22 ± 0.086
